Values of other authors as cited in article PMC5000552.

Target: BCL6 (Homo sapiens) (UniProt P41182)

Sequence of BCOR (Q6W2J9 whole entry): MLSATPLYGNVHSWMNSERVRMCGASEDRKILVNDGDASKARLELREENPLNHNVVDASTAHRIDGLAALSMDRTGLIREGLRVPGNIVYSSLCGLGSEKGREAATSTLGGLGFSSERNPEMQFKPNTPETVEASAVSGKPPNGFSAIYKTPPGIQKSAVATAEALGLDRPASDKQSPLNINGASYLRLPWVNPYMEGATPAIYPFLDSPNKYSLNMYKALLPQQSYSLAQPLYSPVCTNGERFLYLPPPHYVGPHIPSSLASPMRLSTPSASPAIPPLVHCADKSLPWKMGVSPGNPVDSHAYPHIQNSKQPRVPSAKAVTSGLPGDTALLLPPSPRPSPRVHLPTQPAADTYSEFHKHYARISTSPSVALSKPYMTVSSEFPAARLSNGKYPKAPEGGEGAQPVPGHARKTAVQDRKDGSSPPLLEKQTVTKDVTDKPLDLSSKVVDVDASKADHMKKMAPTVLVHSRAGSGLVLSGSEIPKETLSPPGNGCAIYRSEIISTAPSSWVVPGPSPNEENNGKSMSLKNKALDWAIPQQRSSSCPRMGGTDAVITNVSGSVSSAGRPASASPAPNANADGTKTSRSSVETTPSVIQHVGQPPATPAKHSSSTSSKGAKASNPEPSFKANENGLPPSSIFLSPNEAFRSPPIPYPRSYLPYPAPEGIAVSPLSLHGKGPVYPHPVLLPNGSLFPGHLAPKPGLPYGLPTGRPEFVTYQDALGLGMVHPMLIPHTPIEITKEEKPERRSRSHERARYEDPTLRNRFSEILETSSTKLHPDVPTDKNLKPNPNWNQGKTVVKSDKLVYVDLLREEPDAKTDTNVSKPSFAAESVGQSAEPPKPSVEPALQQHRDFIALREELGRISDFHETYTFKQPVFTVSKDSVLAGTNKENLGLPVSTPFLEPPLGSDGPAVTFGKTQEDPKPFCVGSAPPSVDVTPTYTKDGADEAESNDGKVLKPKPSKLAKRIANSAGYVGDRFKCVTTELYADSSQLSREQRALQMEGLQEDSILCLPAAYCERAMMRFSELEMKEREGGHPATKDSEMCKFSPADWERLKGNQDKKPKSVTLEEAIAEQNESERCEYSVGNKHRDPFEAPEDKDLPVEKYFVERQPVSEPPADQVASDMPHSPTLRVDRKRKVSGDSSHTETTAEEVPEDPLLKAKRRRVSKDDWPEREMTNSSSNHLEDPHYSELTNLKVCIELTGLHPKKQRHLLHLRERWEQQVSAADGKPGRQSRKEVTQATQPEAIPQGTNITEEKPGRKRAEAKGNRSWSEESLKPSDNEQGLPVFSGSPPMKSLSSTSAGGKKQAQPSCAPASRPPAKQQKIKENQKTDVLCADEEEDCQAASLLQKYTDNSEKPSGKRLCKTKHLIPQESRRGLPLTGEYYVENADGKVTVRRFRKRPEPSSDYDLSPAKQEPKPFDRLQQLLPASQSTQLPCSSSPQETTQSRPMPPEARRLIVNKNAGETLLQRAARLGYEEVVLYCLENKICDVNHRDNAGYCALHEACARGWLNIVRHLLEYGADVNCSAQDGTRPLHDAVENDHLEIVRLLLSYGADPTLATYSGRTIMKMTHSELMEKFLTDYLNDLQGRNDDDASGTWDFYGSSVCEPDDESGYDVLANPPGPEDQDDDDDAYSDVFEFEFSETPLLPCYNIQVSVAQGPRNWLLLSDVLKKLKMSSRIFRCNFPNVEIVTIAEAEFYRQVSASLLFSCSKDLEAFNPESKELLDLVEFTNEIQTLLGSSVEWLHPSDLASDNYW

- Kd: 20 µM
Substance: BCOR (from UniProt Q6W2J9)
